Laboratory results published in article PMC9018708.

Experiments:
[1] = target: human Heparin Binding EGF Like Growth Factor, overexpressed on ARN8 HBEGFKO cells (human) (UniProt Q99075)
[2] = target: Heparin Binding EGF Like Growth Factor, endogenous on ARN8 cells (human (endogenous in ARN8)) (UniProt Q99075)
[3] = target: Heparin Binding EGF Like Growth Factor (DT receptor) on Vero cells (African green monkey (endogenous in Vero))
[4] = target: Heparin Binding EGF Like Growth Factor (DT receptor) on Vero cells (African green monkey (endogenous in Vero)); remark: listed apart in the source

Substance | sensitivity (EC50), dose titration on +HBEGF ARN8 cells [1] | sensitivity (EC50), dose titration on WT ARN8 cells (HBEGFKO cells: 245 nM) [2] | EC50 of toxicity toward Vero cells (dose titration) [3] | sensitivity (EC50), dose titration on WT ARN8 cells (HBEGFKO cells: 55 nM) [2] | DT sensitivity (EC50), dose titration on +HBEGF ARN8 cells [1] | DT sensitivity (EC50), dose titration on WT ARN8 cells (HBEGFKO cells: N/A) [2] | EC50 of inhibition of protein synthesis (nLucP assay) in Vero cells, overnight (18 h) incubation [4]
DT(ATR), DT chimera with the R domain of Albireti Toxin | 608 nM | 169 nM | 12 nM | – | – | – | –
DT(PTR), DT chimera with the R domain of Peptono Toxin | 50 nM | – | 7 nM | 25 nM | – | – | –
Diphtheria toxin (from UniProt P00588 33-567) (natural protein) | – | – | – | – | 0.00043 nM | 0.026 nM | 0.00015 nM
